Data from publication PMC3852489.

Target: S377-588-Fc (residues 377-588 of MERS-CoV spike protein fused with human IgG Fc) (MERS-CoV) (UniProt K9N5Q8)
Assay: SDS-PAGE of non-boiled against boiled sample

S377-588-Fc (residues 377-588 of MERS-CoV spike protein fused with human IgG Fc) (from UniProt K9N5Q8 377-588) (Fc fusion)
stoichiometry N: 2
